Where no end group is shown, it is not given here.

The chains are these.
T1: endogenous Nup62 (human, UniProt P37198 2-522)
T1 construct: Detected with anti-Nup62
T1 sequence (looked up): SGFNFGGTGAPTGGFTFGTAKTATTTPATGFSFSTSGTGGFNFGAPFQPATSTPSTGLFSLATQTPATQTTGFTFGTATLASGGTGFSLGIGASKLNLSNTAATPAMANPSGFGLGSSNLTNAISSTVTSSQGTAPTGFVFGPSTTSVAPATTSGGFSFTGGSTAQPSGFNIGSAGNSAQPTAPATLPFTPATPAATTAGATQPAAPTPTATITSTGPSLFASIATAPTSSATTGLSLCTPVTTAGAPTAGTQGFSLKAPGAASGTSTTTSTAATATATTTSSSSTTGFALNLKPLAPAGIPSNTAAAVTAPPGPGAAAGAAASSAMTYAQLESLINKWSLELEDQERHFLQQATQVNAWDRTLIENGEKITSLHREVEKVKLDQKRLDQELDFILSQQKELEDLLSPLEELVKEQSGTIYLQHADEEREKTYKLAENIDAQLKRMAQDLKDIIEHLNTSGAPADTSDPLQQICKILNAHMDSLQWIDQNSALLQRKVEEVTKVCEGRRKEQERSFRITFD

T2: endogenous Nup50 (human, UniProt Q9UKX7 1-468, limits assumed)
T2 construct: Detected with anti-Nup50
T2 sequence (looked up): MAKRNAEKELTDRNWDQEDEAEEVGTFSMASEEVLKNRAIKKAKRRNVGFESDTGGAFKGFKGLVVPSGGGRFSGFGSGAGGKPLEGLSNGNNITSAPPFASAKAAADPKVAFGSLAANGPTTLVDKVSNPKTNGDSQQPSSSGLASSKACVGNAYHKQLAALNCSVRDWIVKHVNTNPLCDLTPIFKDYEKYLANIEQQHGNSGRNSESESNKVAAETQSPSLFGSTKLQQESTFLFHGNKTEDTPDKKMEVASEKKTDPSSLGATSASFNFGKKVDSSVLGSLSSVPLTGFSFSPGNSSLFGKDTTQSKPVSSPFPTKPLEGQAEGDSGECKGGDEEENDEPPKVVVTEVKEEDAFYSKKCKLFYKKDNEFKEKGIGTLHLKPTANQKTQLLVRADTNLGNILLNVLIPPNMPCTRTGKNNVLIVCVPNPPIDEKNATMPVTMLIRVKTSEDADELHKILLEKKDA

B1: GFP-KPNB1 H1-8 (receptor)
chain: GGGSGGGSGGGSMELITILEKTVSPDRLELEAAQKFLERAAVENLPTFLVELSRVLANPGNSQVARVAAGLQIKNSLTSKDPDIKAQYQQRWLAIDANARREVKNYVLQTLGTETYRPSSASQCVAGIACAEIPVNQWPELIPQLVANVTNPNSTEHMKESTLEAIGYICQDIDPEQLQDKSNEILTAIIQGMRKEEPSNNVKLAATNALLNSLEFTKANFDKESERHFIMQVVCEATQCPDTRVRVAALQNLVKIMSLYYQYMETYMGPALFAITIEAMKSDIDEVALQGIEFWSNVCDEEMDLAIEASEAAEQGRPPEHTSKFYAKGALQYLVPILTQTLTKQDENDDDDDWNPCKAAGVCLMLLATCCED
notes: also called GFP-KPNB1 H1-8^WT; not shown: GFP/EGFP tag (pEGFP-C1, Clontech)
B2: GFP-KPNB1 H1-3 (receptor)
chain: GGGSGGGSGGGSMELITILEKTVSPDRLELEAAQKFLERAAVENLPTFLVELSRVLANPGNSQVARVAAGLQIKNSLTSKDPDIKAQYQQRWLAIDANARREVKNYVLQTLGTETYRPSSASQCVAGIACAEIPVNQWP
notes: not shown: GFP/EGFP tag (pEGFP-C1, Clontech)
B3: GFP-KPNB1 H1-7 (receptor)
chain: GGGSGGGSGGGSMELITILEKTVSPDRLELEAAQKFLERAAVENLPTFLVELSRVLANPGNSQVARVAAGLQIKNSLTSKDPDIKAQYQQRWLAIDANARREVKNYVLQTLGTETYRPSSASQCVAGIACAEIPVNQWPELIPQLVANVTNPNSTEHMKESTLEAIGYICQDIDPEQLQDKSNEILTAIIQGMRKEEPSNNVKLAATNALLNSLEFTKANFDKESERHFIMQVVCEATQCPDTRVRVAALQNLVKIMSLYYQYMETYMGPALFAITIEAMKSDIDEVALQGIEFWSNVCDEEMDLAIEASEAAEQGRPP
notes: as for B2
B4: GFP-KPNB1 H1-4 (receptor)
chain: GGGSGGGSGGGSMELITILEKTVSPDRLELEAAQKFLERAAVENLPTFLVELSRVLANPGNSQVARVAAGLQIKNSLTSKDPDIKAQYQQRWLAIDANARREVKNYVLQTLGTETYRPSSASQCVAGIACAEIPVNQWPELIPQLVANVTNPNSTEHMKESTLEAIGYICQDIDPEQLQ
notes: as for B2
B5: GFP-KPNB1 H1-6 (receptor)
chain: GGGSGGGSGGGSMELITILEKTVSPDRLELEAAQKFLERAAVENLPTFLVELSRVLANPGNSQVARVAAGLQIKNSLTSKDPDIKAQYQQRWLAIDANARREVKNYVLQTLGTETYRPSSASQCVAGIACAEIPVNQWPELIPQLVANVTNPNSTEHMKESTLEAIGYICQDIDPEQLQDKSNEILTAIIQGMRKEEPSNNVKLAATNALLNSLEFTKANFDKESERHFIMQVVCEATQCPDTRVRVAALQNLVKIMSLYY
notes: as for B2
B6: GFP-KPNB1 H1 (receptor)
chain: {GFP}-GGGSGGGSGGGSMELITILEKTVSPDRLELEAAQKFLERAAVEN
modifications: also: GFP tag fused N-terminally, not in chain, (GGGS)3 linker in chain
notes: as for B2
B7: GFP-KPNB1 H1-5 (receptor)
chain: GGGSGGGSGGGSMELITILEKTVSPDRLELEAAQKFLERAAVENLPTFLVELSRVLANPGNSQVARVAAGLQIKNSLTSKDPDIKAQYQQRWLAIDANARREVKNYVLQTLGTETYRPSSASQCVAGIACAEIPVNQWPELIPQLVANVTNPNSTEHMKESTLEAIGYICQDIDPEQLQDKSNEILTAIIQGMRKEEPSNNVKLAATNALLNSLEFTKANF
notes: as for B2
B8: GFP-KPNB1 H1-2 (receptor)
chain: GGGSGGGSGGGSMELITILEKTVSPDRLELEAAQKFLERAAVENLPTFLVELSRVLANPGNSQVARVAAGLQIKNSLTSKDPD
notes: as for B2
B9: GFP-KPNB1 H1-9 (receptor)
chain: GGGSGGGSGGGSMELITILEKTVSPDRLELEAAQKFLERAAVENLPTFLVELSRVLANPGNSQVARVAAGLQIKNSLTSKDPDIKAQYQQRWLAIDANARREVKNYVLQTLGTETYRPSSASQCVAGIACAEIPVNQWPELIPQLVANVTNPNSTEHMKESTLEAIGYICQDIDPEQLQDKSNEILTAIIQGMRKEEPSNNVKLAATNALLNSLEFTKANFDKESERHFIMQVVCEATQCPDTRVRVAALQNLVKIMSLYYQYMETYMGPALFAITIEAMKSDIDEVALQGIEFWSNVCDEEMDLAIEASEAAEQGRPPEHTSKFYAKGALQYLVPILTQTLTKQDENDDDDDWNPCKAAGVCLMLLATCCEDDIVPHVLPFIKEHIKNPDWRYRDAAVMAFGCILEGP
notes: also called N-terminal half of KPNB1 (HEAT repeats 1-9); not shown: GFP/EGFP tag (pEGFP-C1, Clontech)

The first experiment deals with T1, endogenous Nup62. The experiment in a line: co-IP of GFP-tagged KPNB1 truncations, western blot. The source says: (§1) FIG. 21A) Schematic domain structure of KPNB1. KPNB1 is comprised of 19 HEAT repeats (H1-19). RanGTP and importin-α interact with H1-8 and H8-19, respectively. FG-Nups bind to two regions of KPNB1, H5-7 and H14-16. FIG. 21B) Lysates from HEK293T cells expressing GFP, GFP-KPNB1 full-length (FL), N-terminal fragments of KPNB1 (H1-9 . . . H1) or the C-terminal fragment of KPNB1 (H10-19) were subjected to immunoprecipitation with GFP-Trap magnetic beads. Whole cell lysates (input) and immunoprecipitates (IP) were subjected to western blot analysis using indicated antibodies. KPNB1 H1-8, the smallest fully active KPNB1 fragment in reducing TDP-43 aggregation, strongly interacts with FG-Nups and Ran, and weakly with importin-al in comparison with full-length KPNB1. FIG. 21C) (Top) Schematic domain structure of KPNB1 H1-8^mNIS harboring four missense mutations (1178A, F217A, Y255A, I263R) in the nucleoporin-interacting site (NIS). (Bottom) Lysates from HEK293T cells expressing GFP, GFP-KPNB1 H1-8^WT or H1-8^mNIS were subjected to immunoprecipitation with GFP-Trap magnetic beads. Whole cell lysates (input) and immunoprecipitates (IP) were subjected to western blot analysis using indicated antibodies. […] Hoechst staining was used to outline nuclei. Scale bar: 5 μm. […] Statistical analysis was performed using one-way ANOVA and Bonferroni's post hoc test (**p<0.01, ***p<0.001, n=4). FIG. 21F) IF of HEK293T cells co-expressing GFP-(GR)₁₀₀ with an empty plasmid (ctrl), FLAG-tagged KPNB1 H1-8^WT or H1-8^mNIS and stained for endogenous TDP-43. Unlike KPNB1 H1-8^mNIS, KPNB1 H1-8^WT prevents the sequestration of endogenous TDP-43 in cytoplasmic GR aggregates. Arrowheads point to cytoplasmic GR aggregates. Hoechst staining was used to outline nuclei. Scale bar: 5 μm.
Background: A western blot detects proteins with antibodies after separation by electrophoresis.
For B1, the binding result is reported as “binds”.

Turning to B2, the binding result is “no binding”.

Regarding B3, the binding result is reported as “no binding”.

For B4, the binding result is “no binding”.

With B5, the binding result is “no binding”.

On to B6, for which the binding result is recorded as “no binding”.

On to B7, for which the binding result is on record as “no binding”.

As to B8, the binding result is on record as “no binding”.

Regarding B9, the binding result was “binds”.

A further experiment deals with T2, endogenous Nup50. The experiment is described as above.
From the text: as §1
Regarding B1, the binding result is given as “binds”.

On to B2, for which the binding result was “no binding”.

In the case of B3, the binding result is reported as “no binding”.

As to B4, the binding result was “no binding”.

For B5, the binding result is listed as “no binding”.

B6: the binding result was “no binding”.

For B7, the binding result is “no binding”.

Take B8: the binding result is on record as “no binding”.

Regarding B9, the binding result was “binds”.

A further experiment deals with endogenous Ran (human, UniProt P62826 2-216). Described as above.
From the text: as §1
With B1, the binding result is given as “binds”.

As to B2, the binding result was “no binding”.

Regarding B3, the binding result was “no binding”.

As to B4, the binding result was “no binding”.

Regarding B5, the binding result is reported as “no binding”.

As for B6, the binding result is “no binding”.

For B7, the binding result is given as “no binding”.

Consider B8, for which the binding result is “no binding”.

For the molecule B9, the binding result was “binds”.

In a further experiment the target is endogenous importin-α1 (human, UniProt P52292 2-529). The experiment is described as above.
From the text: as §1
Turning to B2, the binding result is listed as “no binding”.

With B3, the binding result was “no binding”.

With B4, the binding result is listed as “no binding”.

As for B5, the binding result was “no binding”.

For B6, the binding result is listed as “no binding”.

With B7, the binding result is reported as “no binding”.

B8: the binding result is reported as “no binding”.

Consider B9, for which the binding result is listed as “binds”.

The values are drawn from patent US20240226230A1 (MAYO FOUNDATION FOR MEDICAL EDUCATION AND RESEARCH, published 2024).
